Five molecules from patent US20260028677A1, “Compositions and Methods for Modulating Genetic Drivers” (Flagship Pioneering Innovations VII, LLC, priority 2022, published 2026) can be followed below.

“Also recorded” adds a separate entry of the source.

The test system of test [1] is lung cancer (A549), liver cancer (HepG2), and colon cancer (HCT-116) cells. The experiment in a line: WST-1 cell proliferation assay, transient over-expression in multiple cell lines. Type of test: cell-based. Conditions: genetic overexpression in multiple cell lines (A549, HepG2, HCT-116); WST-1 48 hours after transfection; vs pcDNA3.1-Myc negative control. The protocol: FIGS. 2A-2C show analysis of cell viability using the WST-1 assay on lung cancer (A549), liver cancer (HepG2), and colon cancer (HCT-116). Cells were transfected with SEQ ID NO: 4538, SEQ ID NO: 5392, and SEQ ID NO: 4335 individually. pcDNA3.1-Myc tagged was used for negative control. After plasmid transfection, cell proliferation was measured 48 hours later using WST-1 assay. Data are presented as the mean±SD of three independent experiments performed in triplicate. FIG. 2A) WST-1 results in HCT-116 cells. Top: low serum, Bottom: High serum. FIG. 2B) WST-1 results in HepG2 cells. Top: low serum, Bottom: High serum. FIG. 2C) WST-1 results in A549 cells. Top: low serum, Bottom: High serum.
Experimental Design: Protein overexpression plasmids encoding Target Proteins or controls were transiently transfected into multiple cell lines. 24 hours later proliferation was measured using WST-1 assay.
(§1) Materials and Methods: Seed the cells of interest into 96-well plate at a density of 4,000 cells per well in 100 μL of cell culture medium. Incubate the cells in a humidified incubator at 37° C. with 5% CO2 for 24 hours. Dilute the Lipofectamine 3000 (Thermo Fisher) in Opti-MEM medium (Thermo Fisher) to a final concentration of 30 μL/mL. […] Measure the absorbance at 450 nm using a microplate reader. A reference wavelength of 650 nm can be used to correct for background absorbance. Calculate the percentage of viable cells in each well by subtracting the absorbance of the blank (medium only) from the absorbance of each well and expressing the results as a percentage of the control group.
(Tetrazolium assays rely on reduction of a dye to a coloured formazan, in cell work by metabolically active cells.)

Test [2] relates to colon cancer cell line HCT116 cells. Description: WST-1 cell proliferation assay, transient over-expression in HCT116. Type of test: cell-based. To be noted: transient over-expression from pcDNA3.1 plasmid with Lipofectamine 3000 in HCT116; WST-1 48 hours after transfection; high serum conditions; vs control. As for the experimental part:
WST-1 assay on HCT-116 to examine their cell viability and growth when transiently over-expressed SEQ ID NO: 5391 using Lipofectamine 3000. After plasmid transfection, cell proliferation was measured 48 hours later using WST-1 assay. Data are presented as the mean±SD of three independent experiments performed in triplicate.
Protein overexpression plasmids encoding Target Proteins or controls were transiently transfected into multiple cell lines. 24 hours later proliferation was measured using WST-1 assay.
as §1, with “Seed” for “Materials and Methods: Seed”

B1: SEQ ID NO: 5392: target protein, extracellular transmembrane protein, over-expressed from plasmid (protein, listed as Homo sapiens)
chain: MVEKSHPSSLPTLPQPLNHCPETYMLLSAAPSGASQLLSTLTLFLKKHRMDIRTISLRMLLSHTGKLAL
Regarding B1, in test [1], the “proliferation of cells (WST-1 assay)” value is recorded as “significantly increases the proliferation”.

B2: SEQ ID NO: 5391: novel, un-annotated target protein (predicted TM protein) carrying a TCGA mutation site, over-expressed from pcDNA3.1 plasmid (protein, listed as Homo sapiens)
chain: LLLLIIWVRVTFMSCSTHREGLQLRYSLLKPARPRTHREEETTPDAPPLRAVTLTVKVCGITPEVRETTNPPEETPDASEHLKEQTLDTPSLRTETPRQFAASFLKAVRPRTHQFWTQKDLSRLRKWQAIYEEGRDSKRWSQVL
As to B2, the “proliferation of colon cancer cells (WST-1 assay)” value in test [2] is “significantly increases the proliferation; also recorded: increases the proliferation of colon cancer cells”.

B3: SEQ ID NO: 5391_P31L: mutant version of SEQ ID NO: 5391 that contains the TCGA P31L mutation (protein, listed as Homo sapiens)
chain: LLLLIIWVRVTFMSCSTHREGLQLRYSLLKLARPRTHREEETTPDAPPLRAVTLTVKVCGITPEVRETTNPPEETPDASEHLKEQTLDTPSLRTETPRQFAASFLKAVRPRTHQFWTQKDLSRLRKWQAIYEEGRDSKRWSQVL
As to B3, the “proliferation of colon cancer cells (WST-1 assay)” value in test [2] is recorded as “effect on proliferation is significantly more pronounced”.

B4: SEQ ID NO: 4538: target protein, extracellular transmembrane protein, over-expressed from plasmid (protein, listed as Homo sapiens)
chain: LARLFLRPRGPRSPIIQFRRVTGAAVASQGAGSLSPALLPLAPSPRPRRAGLRGQGPSGEGYHLTWKKMSSLEKKHSNVIVQNSLNIHNR
As to B4, the “proliferation of cells (WST-1 assay)” value in test [1] is “significantly increases the proliferation”.

B5: SEQ ID NO: 4335: target protein, extracellular transmembrane protein, over-expressed from plasmid (protein, listed as Homo sapiens)
chain: MNLNPRLRLQVISFHPHPKALAVTLLPALTQSLCLCMASCVYSGPKGFLFLFFPQTAQEKHMKNIT
On to B5, for which the “proliferation of cells (WST-1 assay)” value in test [1] was “significantly increases the proliferation”.
